The values that follow come from ChEMBL document CHEMBL1128006, “Solid phase synthesis of trypanothione disulfide” (Bioorg Med Chem Lett, 1994).

Compound in the data set: NC(CCC(=O)NC1CSSCC(NC(=O)CCC(N)C(=O)O)C(=O)NCC(=O)NCCCNCCCCNC(=O)CNC1=O)C(=O)O
Briefly: Inhibitory activity against recombinant Trypanothione reductase from Trypanosoma cruzi.

B1: Trypanothione reductase (Trypanosoma cruzi), P28593 (protein)
chain: MMSKIFDLVVIGAGSGGLEAAWNAATLYKKRVAVIDVQMVHGPPFFSALGGTCVNVGCVPKKLMVTGAQYMEHLRESAGFGWEFDRTTLRAEWKKLIAVKDEAVLNINKSYEEMFRDTEGLEFFLGWGSLESKNVVNVRESADPASAVKERLETENILLASGSWPHMPNIPGIEHCISSNEAFYLPEPPRRVLTVGGGFISVEFAGIFNAYKPKDGQVTLCYRGEMILRGFDHTLREELTKQLTANGIQILTKENPAKVELNADGSKSVTFESGKKMDFDLVMMAIGRSPRTKDLQLQNAGVMIKNGGVQVDEYSRTNVSNIYAIGDVTNRVMLTPVAINEAAALVDTVFGTNPRKTDHTRVASAVFSIPPIGTCGLIEEVASKRYEVVAVYLSSFTPLMHNISGSKYKTFVAKIITNHSDGTVLGVHLLGDNAPEIIQGVGICLKLNAKISDFYNTIGVHPTSAEELCSMRTPSYYYVKGEKMEKPSEASL
For B1, the Km amounted to 50 µM.
